Experimental findings from the supplement of paper PMC9112550, “Optimization of the antimicrobial peptide Bac7 by deep mutational scanning” (BMC Biology, 2022) are described below.

The data set relates to Escherichia coli TOP10. The data set can be described thus: shrunken log2 fold change of peptide-encoding DNA abundance (4.5 h post-induction vs induction); higher = less antimicrobial activity (less host growth inhibition). Particulars: time post-induction: 4.5 h; library: site-saturation at positions 5, 18, 19, 20.
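Note: peptides expressed intracellularly from a pBAD plasmid library in pooled LB shake-flask culture, induced with 0.3% L-arabinose, DNA abundance read by NGS, three biological replicates, DESeq2 with apeglm shrinkage.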

As to RRIRRRPPRLPRPRPRPTNTPRP, the “shrunken log2 fold change” value is 0.142. For the sequence RRIRERPPRLPRPRPRPLRMPRP, the “shrunken log2 fold change” value turned out to be 0.167.

RRIRMRPPRLPRPRPRPERRPRP: the “shrunken log2 fold change” value amounted to 0.689. Take RRIRPRPPRLPRPRPRPEVYPRP: the “shrunken log2 fold change” value came to 0.0493. Consider RRIRDRPPRLPRPRPRPPGYPRP, for which the “shrunken log2 fold change” value stood at 0.0954.

For RRIRNRPPRLPRPRPRPFTWPRP, the “shrunken log2 fold change” value is -0.62. On to RRIRSRPPRLPRPRPRPWYWPRP, for which the “shrunken log2 fold change” value is -0.307. As to RRIRLRPPRLPRPRPRPPLDPRP, the “shrunken log2 fold change” value was found to be 0.436. Consider RRIRNRPPRLPRPRPRPGEDPRP, for which the “shrunken log2 fold change” value was -0.376. The value for RRIRLRPPRLPRPRPRPFTRPRP was -0.0482. On to RRIRYRPPRLPRPRPRPRSQPRP, for which the “shrunken log2 fold change” value was 0.298. Take RRIRQRPPRLPRPRPRPKSMPRP: the “shrunken log2 fold change” value is -0.179. For RRIRNRPPRLPRPRPRPHRKPRP, the “shrunken log2 fold change” value was 0.0299. As for RRIRCRPPRLPRPRPRPYSVPRP, the “shrunken log2 fold change” value was -0.0508. With RRIRCRPPRLPRPRPRPIFGPRP, the “shrunken log2 fold change” value is -0.0692. With RRIRYRPPRLPRPRPRPHTRPRP, the “shrunken log2 fold change” value was -0.494. Regarding RRIRGRPPRLPRPRPRPMMYPRP, the “shrunken log2 fold change” value was 0.163. In the case of RRIRMRPPRLPRPRPRPKCYPRP, the “shrunken log2 fold change” value is -0.0362. On to RRIRQRPPRLPRPRPRPLMEPRP, for which the “shrunken log2 fold change” value was -0.17. Take RRIRMRPPRLPRPRPRPKCFPRP: the “shrunken log2 fold change” value amounted to 0.0196. For RRIRDRPPRLPRPRPRPPVEPRP, the “shrunken log2 fold change” value is -0.0332.

Turning to RRIRGRPPRLPRPRPRPRCGPRP, the “shrunken log2 fold change” value amounted to 0.751. As for RRIRARPPRLPRPRPRPLFFPRP, the figure is 0.577. As for RRIRVRPPRLPRPRPRPTMGPRP, the figure is 0.04; as for RRIRERPPRLPRPRPRPNAFPRP, -0.568. The value for RRIRTRPPRLPRPRPRPIQYPRP was -0.044; that for RRIRLRPPRLPRPRPRPWIVPRP was -0.0907.

As to RRIRDRPPRLPRPRPRPRRMPRP, the “shrunken log2 fold change” value was -0.152. As for RRIRPRPPRLPRPRPRPIIPPRP, the figure is -0.339. On to RRIRRRPPRLPRPRPRPIMCPRP, for which the “shrunken log2 fold change” value was 0.0545. The value for RRIRCRPPRLPRPRPRPGGDPRP was 0.142. Regarding RRIRLRPPRLPRPRPRPIICPRP, the “shrunken log2 fold change” value was 0.0147. With RRIRFRPPRLPRPRPRPPHDPRP, the “shrunken log2 fold change” value worked out at 0.336. With RRIRGRPPRLPRPRPRPPSNPRP, the “shrunken log2 fold change” value was 0.374. Take RRIRFRPPRLPRPRPRPQPPPRP: the “shrunken log2 fold change” value worked out at 0.94. In the case of RRIRMRPPRLPRPRPRPMEDPRP, the “shrunken log2 fold change” value was determined as 0.0119. Regarding RRIRWRPPRLPRPRPRPPAEPRP, the “shrunken log2 fold change” value turned out to be 2.93. For the sequence RRIRVRPPRLPRPRPRPQDPPRP, the “shrunken log2 fold change” value is 0.0381. On to RRIRKRPPRLPRPRPRPCAIPRP, for which the “shrunken log2 fold change” value amounted to 0.101. For RRIRNRPPRLPRPRPRPFLWPRP, the “shrunken log2 fold change” value is -0.199.

Consider RRIRPRPPRLPRPRPRPFDEPRP, for which the “shrunken log2 fold change” value was -0.0622. RRIRTRPPRLPRPRPRPDQTPRP: the “shrunken log2 fold change” value was -0.0468. As for RRIRSRPPRLPRPRPRPMLNPRP, the “shrunken log2 fold change” value was -0.198. The value for RRIRCRPPRLPRPRPRPWKPPRP was 0.0199.

As to RRIRRRPPRLPRPRPRPMMDPRP, the “shrunken log2 fold change” value is -0.00156.

For the sequence RRIRSRPPRLPRPRPRPWWNPRP, the “shrunken log2 fold change” value was -0.0574. As to RRIRIRPPRLPRPRPRPLQTPRP, the “shrunken log2 fold change” value was 0.0711. As for RRIRNRPPRLPRPRPRPTGYPRP, the “shrunken log2 fold change” value was -0.0249. Regarding RRIRARPPRLPRPRPRPDYEPRP, the “shrunken log2 fold change” value came to 0.00147. Turning to RRIRKRPPRLPRPRPRPWYKPRP, the “shrunken log2 fold change” value is -0.0194.

In the case of RRIRIRPPRLPRPRPRPGIDPRP, the “shrunken log2 fold change” value is -0.00862. Take RRIRKRPPRLPRPRPRPVLLPRP: the “shrunken log2 fold change” value stood at 0.122. With RRIRCRPPRLPRPRPRPGYDPRP, the “shrunken log2 fold change” value was -0.167. With RRIRDRPPRLPRPRPRPWPQPRP, the “shrunken log2 fold change” value is -0.121. In the case of RRIRIRPPRLPRPRPRPFMQPRP, the “shrunken log2 fold change” value was -0.91. As for RRIRNRPPRLPRPRPRPRLNPRP, the “shrunken log2 fold change” value is -0.212. As for RRIRKRPPRLPRPRPRPWKVPRP, the “shrunken log2 fold change” value is -0.000777. As for RRIRERPPRLPRPRPRPCYLPRP, the “shrunken log2 fold change” value is -1.07. Turning to RRIRGRPPRLPRPRPRPHNKPRP, the “shrunken log2 fold change” value was -0.09. For RRIRFRPPRLPRPRPRPPMFPRP, the “shrunken log2 fold change” value is -0.0657. As to RRIRMRPPRLPRPRPRPRYFPRP, the “shrunken log2 fold change” value is 0.0308.

With RRIRMRPPRLPRPRPRPNYVPRP, the “shrunken log2 fold change” value is -0.536. Regarding RRIRERPPRLPRPRPRPCCYPRP, the “shrunken log2 fold change” value worked out at 0.00792. Take RRIRRRPPRLPRPRPRPNMEPRP: the “shrunken log2 fold change” value came to 0.0673. As for RRIRKRPPRLPRPRPRPQNNPRP, the “shrunken log2 fold change” value is -0.417. Take RRIRERPPRLPRPRPRPGHFPRP: the “shrunken log2 fold change” value stood at 0.0631.

In the case of RRIRFRPPRLPRPRPRPYECPRP, the “shrunken log2 fold change” value was -0.0179.

With RRIRYRPPRLPRPRPRPGPLPRP, the “shrunken log2 fold change” value is -0.151. The value for RRIRCRPPRLPRPRPRPDPQPRP was 0.17. As for RRIRTRPPRLPRPRPRPWKHPRP, the figure is -0.529; as for RRIRFRPPRLPRPRPRPFFWPRP, 0.118; as for RRIRFRPPRLPRPRPRPIMMPRP, -0.529. In the case of RRIRTRPPRLPRPRPRPHRMPRP, the “shrunken log2 fold change” value is -0.267. As for RRIRQRPPRLPRPRPRPNRRPRP, the figure is 0.103.

In the case of RRIRCRPPRLPRPRPRPVFDPRP, the “shrunken log2 fold change” value is -0.198. Turning to RRIRGRPPRLPRPRPRPYAYPRP, the “shrunken log2 fold change” value was -0.0803. As to RRIRVRPPRLPRPRPRPNGRPRP, the “shrunken log2 fold change” value worked out at 0.222. As to RRIRHRPPRLPRPRPRPIGTPRP, the “shrunken log2 fold change” value was -0.0693. As for RRIRGRPPRLPRPRPRPGCVPRP, the “shrunken log2 fold change” value was found to be 1.08. For RRIRIRPPRLPRPRPRPLCMPRP, the “shrunken log2 fold change” value is -0.964. Take RRIRNRPPRLPRPRPRPSLIPRP: the “shrunken log2 fold change” value is -0.138. As for RRIRGRPPRLPRPRPRPWKTPRP, the “shrunken log2 fold change” value was -0.0497.

RRIRDRPPRLPRPRPRPYNLPRP: the “shrunken log2 fold change” value is -0.0574. In the case of RRIRRRPPRLPRPRPRPGQLPRP, the “shrunken log2 fold change” value is 0.0163. As to RRIRYRPPRLPRPRPRPQLSPRP, the “shrunken log2 fold change” value was -0.0974.

Turning to RRIRQRPPRLPRPRPRPHEFPRP, the “shrunken log2 fold change” value is -0.287. On to RRIRDRPPRLPRPRPRPPLNPRP, for which the “shrunken log2 fold change” value came to 0.0565. Consider RRIRRRPPRLPRPRPRPSDEPRP, for which the “shrunken log2 fold change” value was -0.0356. Regarding RRIRTRPPRLPRPRPRPYILPRP, the “shrunken log2 fold change” value is -0.0244. For RRIRWRPPRLPRPRPRPICYPRP, the “shrunken log2 fold change” value is -0.214.

RRIRERPPRLPRPRPRPFMCPRP: the “shrunken log2 fold change” value was -0.158. As to RRIRGRPPRLPRPRPRPLIDPRP, the “shrunken log2 fold change” value came out at 1.36. As for RRIRDRPPRLPRPRPRPKPRPRP, the “shrunken log2 fold change” value turned out to be 0.711. Regarding RRIRCRPPRLPRPRPRPTAMPRP, the “shrunken log2 fold change” value was -0.113. As for RRIRARPPRLPRPRPRPYEAPRP, the “shrunken log2 fold change” value was -0.222. As for RRIRCRPPRLPRPRPRPRMPPRP, the figure is 0.187. As for RRIRQRPPRLPRPRPRPYKEPRP, the figure is -0.0137; as for RRIRQRPPRLPRPRPRPTYGPRP, -0.293.

Take RRIRARPPRLPRPRPRPCCHPRP: the “shrunken log2 fold change” value is -0.454.

For the sequence RRIRSRPPRLPRPRPRPEEWPRP, the “shrunken log2 fold change” value is -0.0481. On to RRIRERPPRLPRPRPRPWSVPRP, for which the “shrunken log2 fold change” value was -0.113. As for RRIRFRPPRLPRPRPRPCSYPRP, the “shrunken log2 fold change” value is -0.344. As for RRIRMRPPRLPRPRPRPTDIPRP, the figure is 0.501; as for RRIRHRPPRLPRPRPRPAGKPRP, 0.0288; as for RRIRDRPPRLPRPRPRPQDDPRP, 0.0352. For RRIRQRPPRLPRPRPRPVFYPRP, the “shrunken log2 fold change” value is -0.147. On to RRIRHRPPRLPRPRPRPYTWPRP, for which the “shrunken log2 fold change” value is -1.02. As for RRIRCRPPRLPRPRPRPYTWPRP, the “shrunken log2 fold change” value is -1.09.

Take RRIRHRPPRLPRPRPRPLQNPRP: the “shrunken log2 fold change” value is -0.00367. The value for RRIRTRPPRLPRPRPRPIIRPRP was -0.0034; that for RRIRHRPPRLPRPRPRPQNNPRP was -0.731.

In the case of RRIRTRPPRLPRPRPRPFAAPRP, the “shrunken log2 fold change” value was 0.08. For the sequence RRIRDRPPRLPRPRPRPVGPPRP, the “shrunken log2 fold change” value is -0.286. With RRIRNRPPRLPRPRPRPSWDPRP, the “shrunken log2 fold change” value stood at 0.039. As for RRIRFRPPRLPRPRPRPIRLPRP, the figure is 0.0615; as for RRIRMRPPRLPRPRPRPSFHPRP, -0.432; as for RRIRLRPPRLPRPRPRPCGYPRP, -0.111. With RRIRFRPPRLPRPRPRPMAMPRP, the “shrunken log2 fold change” value worked out at 0.102. As for RRIRPRPPRLPRPRPRPANGPRP, the figure is 0.0748; as for RRIRARPPRLPRPRPRPENGPRP, -0.0341; as for RRIRCRPPRLPRPRPRPHTTPRP, -0.716. On to RRIRVRPPRLPRPRPRPCTVPRP, for which the “shrunken log2 fold change” value is -0.14.

As to RRIRSRPPRLPRPRPRPWWWPRP, the “shrunken log2 fold change” value is 0.0716.

RRIRGRPPRLPRPRPRPHTIPRP: the “shrunken log2 fold change” value came out at 0.151. As for RRIRLRPPRLPRPRPRPKHTPRP, the figure is 0.228.
